Experimental data taken from US20240150797A1, “BIOCATALYTICAL PRODUCTION OF DIHYDROCHALCONES” (Symrise AG, priority 2021, published 2024).

How the values were obtained:
Assay type in all cases: biochemical
Conditions in all cases: purified CHI in 50 mM PBS, 100 μM substrate, 25° C.
[1] = Specific activity of purified CHI, absorbance decrease at 384 nm, eriodictyol chalcone
[2] = Specific activity of purified CHI, absorbance decrease at 384 nm, hesperetin chalcone
[3] = Specific activity of purified CHI, absorbance decrease at 384 nm, homoeriodictyol chalcone
[4] = Specific activity of purified CHI, absorbance decrease at 384 nm, 4-O-methyl butein
Procedure: E. coli BL21 (DE3) cells containing one of the pET28b plasmids from Table 2 or Table 3 were used to inoculate 1 L LB medium at OD of 0.1. Cells were incubated at 37° C., 250 rpm until the OD reached 0.4-0.6 and induced by supplementing with 0.1 mM IPTG. After protein expression at 28° C., 250 rpm for 16 h, the cells were harvested by centrifugation at 4,000×g for 15 min. The harvested cells were lysed with 0.5 mg/mL lysozyme (Sigma-Aldrich), 0.4 U/mL Benzonase (Sigma-Aldrich) and BugBuster (Merck) at room temperature for 0.5 h to obtain a crude cell extract. The crude extract was centrifuged at 10,000×g for 30 min to remove the pellet. Recombinant proteins were purified by Ni-affinity chromatography (GE Healthcare). The supernatant of the crude extract was loaded on the column with 20 mM imidazole. The column was washed by 5 column volumes of 30 mM imidazole with 20 mM PBS (pH 7.4) and 500 mM NaCl. The target proteins were eluted by 150 mM imidazole with 20 mM PBS (pH 7.4) and 500 mM NaCl. Buffer exchange with 50 mM PBS (pH 7.5) was achieved by ultrafiltration with Amicon Ultra-15 (Merck). The activity of the respective purified enzyme was determined by measuring the absorbance decrease at 384 nm in the reaction mix (CHI in 50 mM PBS with 100 μM of either naringenin chalcone, hesperetin chalcone, eriodictyol chalcone, homoeriodictyol chalcone or 4-O-methyl butein at 25° C.).

[5] = Specific activity of purified CHI, absorbance decrease at 384 nm, naringenin chalcone

B1: CHIera Mut3: Chalcone isomerase variant 3 from Eubacterium ramulus, genetically engineered (protein, listed as Eubacterium ramulus)
chain: MADFKFEPMRSLIYVDCVSEDYRPKLQRWIYKVHIPDSISNFEPYVTKYAFYPSFPIPPQGDRFGYARMQLTEHHWLVSELDPRLEIKAIAETFPMDVLVWQGQIPAAAHTDAQIDSDGDAGRAAGKSNNAEGNPFIFAFLPMWWEKDLKGKGRTIEDGANYRFNMTIGFPEGVDKAEGEKWLFEKVVPILQAAPECTRVLASAVKKDINGCVMDWVLEIWFENQSGWYKVMVDDMKALEKPSWAQQDAFPFLKPYHNVCSAAVADYTPSNNLANYRGYITMR
[1]
  Specific activity, Eriodictyol chalcone: 39.2
[2]
  Specific activity, Hesperetin chalcone: 55.1
[3]
  Specific activity, Homoeriodctiol chalcone: 13.0
[4]
  Specific activity, 4-O-methyl butein: 0.3
[5]
  Specific activity, Naringenin chalcone: 16.7

B2: CHIera Mut13: Chalcone isomerase variant 13 from Eubacterium ramulus, genetically engineered (protein, listed as Eubacterium ramulus)
chain: MADFKFEPMRSLIYVDCVSEDYRPKLQRWIYKVHIPDSISKFEPYVTKYAFYPSFPIPPQGDRFGYARMQLTEHHWLVSPLDPRLEINAIAETFPMDVLVWQGQIPAAAHTDAQIDSDGDADDAARKSNNAEGNPFIFAFLPMWWEKDLKGKGRTIEDGANYRFNMTIGFPEGVDKAEGEKWLFEKVVPILQAAPECTRVLASAVKKDINGCVMDWVLEIWFENQSGWYKVMVDDMKALEKPSWAQQDAFPFLKPYHNVCSAAVADYTPSNNLANYRGYITMR
[1]
  Specific activity, Eriodictyol chalcone: 28.0
[2]
  Specific activity, Hesperetin chalcone: 107.1
[3]
  Specific activity, Homoeriodctiol chalcone: 33.6
[4]
  Specific activity, 4-O-methyl butein: 1.4
[5]
  Specific activity, Naringenin chalcone: 28.0

B3: CHIera Mut5: Chalcone isomerase variant 5 from Eubacterium ramulus, genetically engineered (protein, listed as Eubacterium ramulus)
chain: MADFKFEPMRSLIYVDCVSEDYRPKLQRWIYKVHIPDSISKFEPYVTKYAFYPSFPIPPQGDRFGYARMQLTEHHWLVSPLDPRLEINAIAETFPMDVLVWQGQIPAAAHTDAQIDSDGDAGRAAKKSNNAEGNPFIFAFLPMWWEKDLKGKGRTIEDGANYRFNMTIGFPEGVDKAEGEKWLFEKVVPILQAAPECTRVLASAVKKDINGCVMDWVLEIWFENQSGWYKVMVDDMKALEKPSWAQQDAFPFLKPYHNVCSAAVADYTPSNNLANYRGYITMR
[1]
  Specific activity, Eriodictyol chalcone: 13.5
[2]
  Specific activity, Hesperetin chalcone: 4.5
[3]
  Specific activity, Homoeriodctiol chalcone: 8.8
[4]
  Specific activity, 4-O-methyl butein: 0.1
[5]
  Specific activity, Naringenin chalcone: 8.0

B4: CHIera Mut8: Chalcone isomerase variant 8 from Eubacterium ramulus, genetically engineered (protein, listed as Eubacterium ramulus)
chain: MADFKFEPMRSLIYVDCVSEDYRPKLQRWIYKVHIPDSISKFEPYVTKYAFYPSFPIPPQGDRFGYARMQLTEHHWLVSPLDPRLEINAIAETFPMDVLVWQGQIPAAAHTDAQIDSDGDAGEAARKSNNAEGNPFIFAFLPMWWEKDLKGKGRTIEDGANYRFNMTIGFPEGVDKAEGEKWLFEKVVPILQAAPECTRVLASAVKKDINGCVMDWVLEIWFENQSGWYKVMVDDMKALEKPSWAQQDAFPFLKPYHNVCSAAVADYTPSNNLANYRGYITMR
[1]
  Specific activity, Eriodictyol chalcone: 49.0
[2]
  Specific activity, Hesperetin chalcone: 83.9
[3]
  Specific activity, Homoeriodctiol chalcone: 21.2
[4]
  Specific activity, 4-O-methyl butein: 0.5
[5]
  Specific activity, Naringenin chalcone: 25.6

B5: CHIera Mut6: Chalcone isomerase variant 6 from Eubacterium ramulus, genetically engineered (protein, listed as Eubacterium ramulus)
chain: MADFKFEPMRSLIYVDCVSEDYRPKLQRWIYKVHIPDSISNFEPYVTKYAFYPSFPIPPQGDRFGYARMQLTEHHWLVSELDPRLEIRAIAETFPMDVLVWQGQIPAAAHTDAQIDSDGDAGDAARKSNNAEGNPFIFAFLPMWWEKDLKGKGRTIEDGANYRFNMTIGFPEGVDKAEGEKWLFEKVVPILQAAPECTRVLASAVKKDINGCVMDWVLEIWFENQSGWYKVMVDDMKALEKPSWAQQDAFPFLKPYHNVCSAAVADYTPSNNLANYRGYITMR
[1]
  Specific activity, Eriodictyol chalcone: 52.4
[2]
  Specific activity, Hesperetin chalcone: 30.3
[3]
  Specific activity, Homoeriodctiol chalcone: 20.0
[4]
  Specific activity, 4-O-methyl butein: 0.4
[5]
  Specific activity, Naringenin chalcone: 17.1
